Measured values reported in publication PMC3078890, “Sponge non-metastatic Group I Nme gene/protein - structure and function is conserved from sponges to humans” (BMC Evolutionary Biology, 2011).

Biological target: the molecule itself
Assay: cross-linking; 8 ug protein in PBS at room temperature, 25 mM glutaraldehyde for 5 min, quenched with 0.2 M Tris-HCl pH 7.5; 12.5% SDS-PAGE, Coomassie staining

B1: sponge NmeGp1Sd protein (Suberites domuncula Group I Nme), recombinant (natural protein, UniProt Q5DIW9 1-151, looked up)
chain: MTTERTYIMIKPDGVQRGLMGDIIKRFEQKGFKMVAMKFMQPSEKLLSEHYADLSKKPFFPGLVKFMATSPVCCMVWEGQGAVATGRQMLGETDPAKSKPGTIRGDFCIHIGRNICHGSDSVESANKEIALWFKPEELVDWTPTEQQWIYE
notes: NmeGp1Sd (formerly Nm23-SD1), Group I Nme / nucleoside diphosphate kinase of the marine sponge Suberites domuncula; cDNA cloned into pET15b (NdeI/BamHI) with primers from the ATG start codon to the stop codon; Cloned downstream of the thrombin site of pET15b; residues of the vector may remain at the N-terminus after cleavage; also called Nm23-SD1; not shown: His6, N-terminal, cleaved
- stoichiometry N: 6
